From patent publication US5668265

Target: alpha-thrombin (Homo sapiens) (UniProt P00734+P00734)
Experiment: SPR
Settings: apparent
[1] = DNA segments joined 3'-3' by a single phosphodiester (inverted polarity; second segment given 5'-3'), solution competition vs immobilized consensus aptamer, same buffer, 25 C
[2] = DNA segments joined 3'-3' through glycerol phosphodiester linker L2 (both segments given 5'-3'), solution competition vs immobilized consensus …, same buffer, 25 C

GGTTGGGGTTGG [Compound 11 (uni-directional)]
Kd (hexaethylene glycol phosphodiester linker L1 between 3' end of first and 5' end of second segment (normal polarity), solution competition vs immobilized consensus aptamer, same buffer, 25 C): 29 nM

GGTTGGTGGGTTGGT [Compound 1]
Kd [1]: 224 nM

GGTTGGTGGTTGGT [Compound 5]
Kd (DNA segments joined 3'-3' through hexaethylene glycol phosphodiester linker L1 (both segments given 5'-3'), solution competition vs immobilized consensus aptamer, 80 nM thrombin, 20 mM Tris-acetate, 140 mM NaCl, 5 mM KCl, 1 mM CaCl2, 1 mM MgCl2, pH 7.4 …): 9 nM

GGTTGGTGGTTGGT [Compound 8]
Kd [2]: 29 nM

GGTTGGTTGGGTTGGTT [Compound 3]
Kd [1]: 11 nM

GGTTGGTTGGTTGGTT [Compound 2]
Kd [1]: 312 nM

GGTTGGTTGGTTGGTT [Compound 6]
Kd (DNA segments joined 3'-3' through hexaethylene glycol phosphodiester linker L1 (both segments given 5'-3'), solution competition vs immobilized consensus aptamer, same buffer, 25 C): 10 nM

GGTTGGTTGGTTGGTT [Compound 9]
Kd [2]: 19 nM

TGGTTGGTGGTTGG [Compound 7]
Kd (DNA segments joined 5'-5' through hexaethylene glycol phosphodiester linker L1 (both segments given 5'-3'), solution competition vs immobilized consensus aptamer, same buffer, 25 C): 23 nM

TTGGTTGGTTGGTTGG [Compound 4]
Kd (DNA segments joined 5'-5' by a single phosphodiester (inverted polarity; both segments given 5'-3'), solution competition vs immobilized consensus aptamer, same buffer, 25 C): 25 nM
